From patent US5786324A, “Synthetic peptides with bactericidal activity and endotoxin neutralizing activity for gram negative bacteria and methods for their use” (priority 1994, dated 1998)
“Also recorded” adds a separate entry of the source. Where two headings read alike, the source gives them in different places.

Key:
[1] = system: Pseudomonas aeruginosa type 1; format: cell-based; conditions: for % Killing of 5 × 10^6 Bacteria: P. aeruginosa
Description: Bactericidal activity can be evaluated against a variety of bacteria such as Pseudomonas spp including aeruginosa and P. cepacia, E. coli B, and Staphylococcus aureus. The preferred organism is P. aeruginosa. Bactericidal activity is determined by identifying the effective dose for killing as the molar concentration of the peptide which results in at least a 60% killing of the bacteria, as determined by standard methods. Preferably, the peptide has an effective dose at a concentration of about 1×10^-4 M to about 1×10^-10 M, and more preferably 1×10^-7 M to 1×10^-9M . […] The effective dose for bactericidal activity of B/PI is seen at about […] . Bactericidal activity can also be determined by calculating a lethal dose 50 (LD50) using standard methods. The LD50 is that amount of peptide or protein that kills 50% of the bacteria when measured using standard dose response methods. A bactericidal peptide preferably has an LD50 of about 10^-4 M to about 10^-9 M , more preferably about 10^-7 to 10^-9 M .
(§1) The synthetically produced peptides were assayed for bactericidal activity against Pseudomonas aeruginosa, type 1, P. cepacia ATCC 25608, E. coli B, and Staphylococcus aureus 502A by standard methods.
(§2) Pseudomonas aeruginosa type 1 is a clinical isolate maintained in the laboratory since 1972. The isolate remains a smooth strain and was serotyped by the scheme of Homma. Homma, Jpn. J. Exp. Med., 46:329 (1976). A rough strain E. coli B and S. aureus 502A were obtained from Paul Quie, University of Minnesota. The characteristics of the S. aureus strain have been described in Shinefield et al., Amer. J. Dis. Chil., 105:646 (1963). Pseudomonas cepacia ATCC 25608 was purchased from the American Type Culture Collection in 1980. S. aureus and E. coli were maintained on nutrient agar plates and the Pseudomonas strains were maintained on blood agar plates.
(§3) Pyrogen-free solutions were used throughout this assay and all methods which follow. Log phase bacteria were prepared from a culture in brain heart infusion broth as previously described except that bacteria were washed and resuspended in saline with adjustment to an optical density at 650 nm which would yield 3×10^8 CFU/ml. Bacteria were then diluted 1:10 in 0.08M citrate phosphate buffer, pH 5.6 or pH 7.0, for use in the assay. S. aureus rapidly lost viability in the pH 5.6 buffer and was studied only at pH 7.0. Bactericidal activity was determined by dose response and where an LD50 is indicated, it was determined by linear regression.

[2] = system: P. cepacia ATCC 25608; assay: Bactericidal assay, P. cepacia; format: cell-based, Pseudomonas cepacia; conditions: for % Killing of 5 × 10^6 Bacteria: P. cepacia, 4.1 × 10^-9 M
Description: as §1, §2, §3

[3] = system: E. coli B; assay: Bactericidal assay, E. coli B; format: cell-based
Description: as §1, §2, §3

[4] = system: Staphylococcus aureus 502A; format: cell-based; conditions: S. aureus; pH 7.0; 4.1 × 10^-9 M
Description: as §1, §2, §3

[5] = system: E. coli 055: B5 LPS; assay: Limulus amoebocyte lysate assay, neutralization of endotoxin; format: biochemical
Description: The peptide selected can also have endotoxin neutralizing activity. […] Endotoxin neutralizing activity can also be measured by calculating an inhibitory dose 50 […] using standard does response methods. An inhibitory dose 50 is that amount of peptide that can inhibit 50% of the activity of endotoxin. Endotoxin activity can also be measured by determining the amount of release of tumor necrosis factor alpha (TNFα) from a macrophage cell line or by evaluating the symptoms of shock in animals. Peptides preferably neutralized endotoxin at a molar concentration of about 1×10^-4 M to about 10^-8 M , more preferably about 10^-5 M to about 10^-6 M .
The ability of synthetic peptides to neutralize endotoxin was detected with the E-TOXATE kit manufactured by Sigma Chemicals, St. Louis, Mo. […] Peptide was incubated with LPS at room temperature for 10 minutes in 100 μl of a 1:2 dilution of pyrogen-free saline, pH 6.4. The reaction was started by addition of 100 μl of amoebocyte lysate and the final volume was 200 μl.
^a The dose of peptide required to inhibit clotting of LAL by 100%.
Each tube contained 0.04 endotoxin units of E. coli LPS.

[6] = Storage stability of bactericidal activity of B/PI in elution buffer; format: physicochemical; conditions: 0.05M glycine buffer, pH 2.5, with 0.5M NaCl; 4° C. and -70° C.; prolonged periods
Description: Recombinant products can be purified from infected cells by immunoaffinity chromatography with the appropriate immobilized rabbit anti-peptide antibody or a mouse monoclonal antibody to B/PI. B/PI was reproducibly purified by application of partially purified samples of 2 mg protein to a 1.5×180 cm Toyopearl HW55S (Toso Haas) column or 200 mg protein to a TSX2000 HPLC (Beckman) column. The elution buffer for both columns is 0.05M glycine buffer, pH 2.5, with 0.5M NaCl. Recovery of B/PI protein was excellent and 100% of bactericidal activity is retained. The bactericidal activity of B/PI in this buffer was stable at 4° C. and at -70° C. for prolonged periods. The columns resolve protein standards over the range of 2-70 kD and can be used for all steps separation of fragments of B/PI by molecular weight. Reverse phase HPLC can be used if necessary.

[7] = Table 7, dose required to inhibit clotting of LAL by 100%, 0.04 endotoxin units of E. coli LPS

B1: B/PI: 55 kD bactericidal/permeability increasing protein purified from human neutrophil granules (protein)
chain: MRENMARGPCNAPRWVSLMVLVAIGTAVTAAVNPGVVVRISQKGLDYASQQGTAALQKELKRIKIPDYSDSFKIKHLGKGHYSFYSMDIREFQLPSSQISMVPNVGLKFSISNANIKISGKWKAQKRFLKMSGNFDLSIEGMSISADLKLGSNPTSGKPTITCSSCSSHINSVHVHISKSKVGWLIQLFHKKIESALRNKMNSQVCEKVTNSVSSKLQPYFQTLPVMTKIDSVAGINYGLVAPPATTAETLDVQMKGEFYSENHHNPPPFAPPVMEFPAAHDRMVYLGLSDYFFNTAGLVYQEAGVLKMTLRDDMIPKESKFRLTTKFFGTFLPEVAKKFPNMKIQIHVSASTPPHLSVQPTGLTFYPAVDVQAFAVLPNSSLASLFLIGMHTTGSMEVSAESNRLVGELRLDRLLLQLKHSNIGPFPVELLQDIMNYIVPILVLPRVNEKLQKGFPLPTPARVQLYNVVLQPHQNFLLFGADVVYK
[1]; 5×10^6 CFU, pH 5.6, dose response, linear regression
  LD50 for P. aeruginosa: 3.4 nM
[1]; pH 5.6, 4.1 × 10^-9 M
  % Killing of 5 × 10^6 Bacteria: 50 ± 5%
[1]; pH 5.6, 5.5 × 10^-9 M
  % Killing of 5 × 10^6 Bacteria: 87 ± 8%
[1]; pH 7.0, 4.1 × 10^-9 M
  % Killing of 5 × 10^6 Bacteria: 35 ± 3%
[2]; pH 5.6
  % Killing of 5 × 10^6 Bacteria: 0%
[2]; pH 7.0
  % Killing of 5 × 10^6 Bacteria: 0%
[2]; concentration 20fold higher: 9.1×10^-8 M, approximately 5 μg protein/ml
  killing of P. cepacia (in words): not killed; also recorded: resisted bactericidal activity
[3]; E. coli B, pH 5.6, 5.5 × 10^-9 M
  % Killing of 5 × 10^6 Bacteria: 71%
[3]; E. coli, pH 5.6, 4.1 × 10^-9 M
  % Killing of 5 × 10^6 Bacteria: 35 ± 4%
[3]; E. coli, pH 7.0, 4.1 × 10^-9 M
  % Killing of 5 × 10^6 Bacteria: 25 ± 5%
[4]
  % Killing of 5 × 10^6 Bacteria: 0%
[5]; 0.04 endotoxin units of E. coli 055: B5 LPS
  peptide concentration which neutralized endotoxin (100% inhibition of LPS-induced gelation): about 10^-8 M
[5]; [7]
  Effective Dose (μg/0.2 ml): 0.165 μg/0.2 ml
  Effective Dose M (× 10^-4): 0.00015 M (× 10^-4)
[6]
  stability of bactericidal activity on storage: stable
